Laboratory results from patent US11389509B1, “Methods for treatment of social dysfunction neurological disorders and seizures” (University of Virginia Patent Foundation, priority 2017, dated 2022).
“Also recorded” adds a separate entry of the source.

B1: IFN-γ: recombinant interferon-gamma cytokine (eBioscience), injected into the CSF via cisterna magna (protein, UniProt P01580 23-155, looked up)
Interferon gamma: HGTVIESLESLNNYFNSSGIDVEEKSLFLDIWRNWQKDGDMKILQSQIISFYLRLFEVLKDNQAISNNISVIESHLITTFFSNSKAKKDAFMSIAKFEVNNPQVQRQAFNELIRVVHQLLPESSLRKRKRSRC

Columns and labels:
mice [1] = test: Three-chamber sociability assay; type: in vivo, mouse; details: for social deficits / social behavior / social preference / social deficits: Ifng−/− mice; for social deficits / social behavior: diazepam 1.25 mg/kg i.p. 30 minutes prior to testing; for social preference / social deficits: single CSF (i.c.m.) injection of IFN-γ 20 ng, tested 24 hours post-injection
Method: The three-chamber sociability test was conducted as previously described^31. Briefly, mice were transported to the testing room and habituated for at least one hour. The room was maintained in dim light and a white noise generator used to mitigate any unforeseen noises. Test boxes were fabricated, in-house, by a machine shop. Test mice were placed in the center chamber with the two outer chambers containing empty wire cages (Spectrum Diversified Designs) and allowed to explore for ten minutes (habituation phase). After the habituation phase, mice were return to the center chamber. A novel mouse (an 8-10 week old male C57BL/6J˜18-22 g) was placed under one cup and an object placed under the other. Prior to testing, the novel mouse was habituated to the cup by being placed under the cup for 10 minutes, 3 times a day for 5 days. Mice were allowed to explore for an additional ten minutes (social phase). A video tracking system (CleverSys) was used to quantify the time spent around each target. For 3-chamber experiments comparing social behavior between wild-type and SCID mice, data collected using males and females were combined because no significant effects were found between genders.
A rat monoclonal antibody to murine VLA4 (clone PS/2) was affinity purified from hybridoma supernatants and was used with the kind permission of Dr. Klaus Ley (La Jolla Institute of Allergy and Immunology, San Diego, Calif.). Mice were given two separate injections (i.p.; 0.2 mg in saline per mouse), four days apart, of either anti-VLA4 or rat anti-HRP for control (clone HRPN; BioXcell), then tested twenty-four hours post final injection.
(§1) Mice were anaesthetized with a ketamine/xylazine [ketamine (100 mg/kg) and xylazine (10 mg/kg)] injection (i.p.) or isoflurane (2%), then placed into a stereotaxic frame with the head at an approximately 45° angle. The skin above cisterna magna was cleaned and sanitize before a 1 cm incision was made. The underlying muscles were separated with forceps, retracted, and a small Hamilton syringe (33 G) was used to slowly inject 1 uL of saline or IFN-γ (20 ng; eBioscience) into the cisterna magna (i.c.m.). After injection the syringe was held in place for 5 minutes to avoid back-flow of CSF. After the syringe was removed, muscles were put back in place and skin was sutured. Mice were placed on a heating pad and given ketoprofen and baytril for recovery.
Diazepam (1.25 mg/kg) was delivered i.p. for 30 minutes prior to testing for social behavior.

Ifng−/− mice = test: Resting-state fMRI functional connectivity of PFC/insular nodes; type: in vivo, mouse; details: single injection of recombinant IFN-γ into the CSF
Source text: The protocol for rsfMRI was adapted from Zhan et al.^32. Mice were maintained under light anesthesia with (1-1.25%) isoflurane and images were acquired on a 7.0 Tesla MRI Clinscan system (Bruker, Etlingen, Germany) using a 30-mm inner-diameter mouse whole-body radiofrequency coil. High-resolution structural images were acquired by collecting 16×0.7 mm thick coronal slices using TR/TE 5,500/65 ms and an […]. A BOLD rsfMRI time series of 16×0.7 mm thick coronal slices were collected using TR/TE 4,000/17 ms and a 60o flip angle. For analysis, a structural template^33 was custom labeled using “The Mouse Brain” by Paxinos and Franklin as reference (FIGS. 6A-6C). The non-rigid transformation between the template and each individual mouse was estimated using the open source Advanced Normalization Tools (ANTs) package^34 that was then used to propagate the regional labels to each subject. […] The correlation matrix was determined from the clean fMRI data using the regions labels. […] When comparing networks from multiple sample groups, the threshold was determined by calculating the maximum threshold that leaves one of the networks connected (i.e., it is possible to reach any node in the network from any other node). […]

[2] = test system: layer 2/3 prefrontal cortical neurons; test: Whole-cell patch-clamp of tonic inhibitory currents in acute brain slices; type: cell-based, mouse
Method: Visualized whole-cell patch-clamp recordings were performed on layer 2/3 prefrontal cortical neurons prepared from acute brain slices (adult) using the protective recovery method^42. Recordings were performed in 34° C. artificial cerebrospinal fluid (ACSF) containing (in mM) 131.5 NaCl, 25 NaHCO3, 12 D-glucose, 2.5 KCl, 1.25 NaH2PO4, 2 CaCl2, and 1 MgCl2. ACSF also contained 3 mM kynurenic acid to block synaptic excitation and […] NO-711 to enhance tonic inhibition^43. Slices were incubated in this ACSF for 5-10 minutes prior to placement in the recording chamber. The patch pipette solution with elevated chloride contained (in mM) 140 CsCl, 4 NaCl, 1 MgCl2, 10 HEPES, 0.05 EGTA, 2 Mg-ATP, and 0.4 Mg-GTP^43. Once recordings equilibrated, baseline holding current in ACSF was measured for 3.5 minutes, after which ACSF containing IFN-γ (20 pg/mL) was applied for 8.5 minutes and then washed. Data presented show the mean holding current during the last minute of control (ACSF) and drug (ACSF+IFN-γ) conditions.

mice [3] = test: PTZ induced seizures; type: in vivo, mouse; details: IFN-γ i.c.m. 24 hours prior to PTZ 40 mg/kg i.p.
Method: IFN-γ was injected (i.c.m.) into the CSF through the cisterna magna (i.c.m.), as described above, 24 hours prior to inducing seizures. Control mice were injected with the same volume of saline. To induce seizures, mice were injected with PTZ (40 mg/kg; i.p.). After injection, mice were placed into an empty housing cage and recorded for video analysis. Seizures were analyzed by a blinded observer using a behavior scoring system previously published^41.

[4] = test system: layer I neocortical neurons; test: c-fos immunohistochemistry in PFC after CSF injection; type: in vivo, mouse; details: IFN-γ injected into the CSF (i.c.m.) 2 hours prior to sacrificing
Method: Mice were sacrificed under Euthasol then transcardially perfused with PBS with heparin. Brains were removed and drop fixed in 4% PFA for 48 hours. After fixation, brains were washed with PBS, cryoprotected with 30% sucrose, then frozen in O.C.T. compound (Sakura Finetek) and sliced ([…]) with a cryostat (Leica). Free-floating sections were maintained in PBS+Azide (0.02%) until further processing. Immunohistochemistry for c-fos (1:1000 dilution; Millipore) on free-floating sections was performed as previously described^39.
as §1

| Molecule | social deficits / social behavior (mice [1]) | social deficits / social behavior (mice [1]; listed as Diazepam) | hyper-connectivity in the PFC (connections of local PFC/insular nodes) (Ifng−/− mice; Jennrich test P=0.02) | hyper-connectivity in the PFC (connections of local PFC/insular nodes) (Ifng−/− mice; Jennrich test P=0.02, listed as recombinant IFN-γ) | tonic inhibition ([2]; VgatCre::Ifngr1fl/fl line, Cre− mice) | tonic inhibitory current ([2]; VgatCre::Ifngr1 fl/fl mice (IFN-γ receptor deleted from inhibitory neurons)) | tonic GABAergic inhibitory current (holding current) ([2]; slices from wild-type mice, IFN-γ 20 pg/mL in ACSF for 8.5 minutes) | latency to reach each seizure stage / seizure onset (mice [3]) | maximum severity of seizures (mice [3]) | susceptibility to PTZ induced seizures (mice [3]) | social deficits (mice [1]; Ifngr1−/− mice, IFN-γ injected into the CSF) | social preference / social deficits (mice [1]) | social preference / social deficits (mice [1]; listed as recombinant IFN-γ) | c-fos+ cells in layer I of the PFC [4] | c-fos+ cells in layer I of the PFC ([4]; listed as recombinant IFN-γ) |
| --- | --- | --- | --- | --- | --- | --- | --- | --- | --- | --- | --- | --- | --- | --- | --- |
| CN1C(=O)CN=C(c2ccccc2)c2cc(Cl)ccc21 [diazepam, reference compound] | rescued social deficits | successfully rescued social behavior | – | – | – | – | – | – | – | – | – | – | – | – | – |
| B1 | – | – | connections were reduced | reduce overall hyper-connectivity in the PFC | increased tonic inhibition | prevented IFN-γ from augmenting tonic inhibitory current | increases tonic GABAergic inhibitory current; also recorded: augmented tonic current | increased latency to reach each seizure stage; also recorded: delayed seizure onset | reduced the maximum severity of seizures; also recorded: lowered seizure severity | less susceptible to PTZ induced seizures | not rescued | sufficient to rescue social deficits | sufficient to restore their social preference | increased the number of c-fos+ cells in Layer I of the PFC | activated layer I neocortical neurons |
